Source: US20230406950A1 (LYVGEN BIOPHARMA, published 2023)
Blank lines part the entries; values can stand above or below the binder they belong to.

Experiments:
[1] = molecular target: T1, human CD40 expressed on CHO cells (human, UniProt P25942 21-277); experiment: FACS on CHO cells expressing human CD40 (MFI)
T1 construct: whole, on cells
Protocol: (§1) Anti-CD40/CD137 bi-specific antibodies were analyzed by FACS for their binding properties to human CD40 and/or human CD137 expressed on CHO cells. Briefly, cultured cells were harvested, counted and cell viability was evaluated using the Trypan Blue exclusion method. Viable cells were then adjusted to 2×10⁶ cells per mL in PBS containing 2% BSA. 100 μL of this cell suspension were further aliquoted per well into a V-bottom 96-well plate. […] After incubation for 2 hours at 4° C., cells were centrifuged (3 min, 1000×g), washed with 250 μL/well BSA-containing FACS Stain Buffer, resuspended and incubated for an additional 1 hour at 4° C. with 100 μL/well fluorochrome-conjugated anti-IgG antibody for detection of the bisepecific antibody. Cells were then washed with 250 μL/well BSA-containing FACS Stain Buffer, resuspended in 100 μL/well FACS Stain Buffer, acquired and analyzed using a FACS machine. Binding of the bispecific antibodies to human CD40 or human CD137 expressing CHO cells were evaluated and the mean fluorescence intensity is plotted in histograms or dot plots.

[2] = molecular target: T2, human CD137 expressed on cells (human, UniProt Q07011 24-255); experiment: flow cytometry (FACS), MFI, CHO cells expressing human CD137
T2 construct: whole, on cells; also called 4-1BB; TNFRSF9
T2 sequence (Q07011 24-255): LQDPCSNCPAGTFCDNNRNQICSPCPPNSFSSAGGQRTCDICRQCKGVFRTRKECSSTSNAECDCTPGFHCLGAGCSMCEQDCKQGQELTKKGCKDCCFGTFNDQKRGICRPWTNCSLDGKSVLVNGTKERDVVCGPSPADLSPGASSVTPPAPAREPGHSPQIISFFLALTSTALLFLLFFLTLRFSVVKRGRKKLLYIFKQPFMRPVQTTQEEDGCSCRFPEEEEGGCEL
Protocol: as §1, with “Exemplary anti-PD-1/CD137” for “Anti-CD40/CD137”, “PD-1” for “CD40”, “1000× g),” for “1000×g),”

[3] = molecular target: T3, human CD137 ECD protein (His tag) (human, UniProt Q07011 24-186); experiment: bridging ELISA: human CD137 ECD (His tag) coated, antibody titrated, then human PD-1 ECD (mouse IgG2a Fc tag), HRP anti-mouse IgG2a Fc; A450-A620
T3 construct: extracellular domain; also called recombinant human CD137; not shown: His tag
Protocol: Exemplary anti-PD-1/CD137 bi-specific antibodies were analyzed by ELISA for their simultaneous binding to recombinant human PD-1 and human CD137. Briefly, human CD137 ECD protein (His tag) was diluted and coated onto an ELISA plate with a volume of 100 μL/well by incubation at 4° C. overnight. The next day, the plate was blocked with PBST-BSA buffer, then serially diluted samples of anti-PD-1/CD137 bi-specific antibodies were pipetted into appropriate wells at 50 μL/well, and the plate was incubated for 1 hour followed by washing. The extracellular domain (ECD) of human PD-1 protein (mouse IgG2a Fc tag) was added into the plate at 50 μL/well. After 1-hour incubation at room temperature, HRP-conjugated anti-Mouse IgG, Fc G2a specific antibody was added into the plate at 100 μL/well. The plate was incubated for 1 hour at room temperature followed by washing. TMB substrate solution was added at 100 μL/well and the color development was stopped by adding 100 uL/well Stop Solution (2N H₂SO₄). Absorbance at 450 nm and 620 nm was read by Tecan F200 Pro plate reader. GraphPad 7.0, “[Agonist] vs. response—Variable slope (four parameters)” was used to plot the binding data and calculate binding EC50 values.

[4] = molecular target: T4, human PD-1 expressed on cells (human, UniProt Q15116 25-288); experiment: flow cytometry (FACS), MFI, CHO cells expressing human PD-1
T4 construct: whole, on cells; also called human PD-1 over-expressed on the CHO cells; Jurkat/NFkB-Luci/PD-1 cells
T4 sequence (Q15116 25-288): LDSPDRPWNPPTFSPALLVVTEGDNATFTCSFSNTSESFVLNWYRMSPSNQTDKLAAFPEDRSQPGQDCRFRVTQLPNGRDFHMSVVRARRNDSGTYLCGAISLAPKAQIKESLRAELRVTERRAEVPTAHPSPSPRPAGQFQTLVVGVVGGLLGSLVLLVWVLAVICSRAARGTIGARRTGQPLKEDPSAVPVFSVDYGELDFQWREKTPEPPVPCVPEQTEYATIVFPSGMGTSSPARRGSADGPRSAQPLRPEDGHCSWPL
Protocol: as §1, with “Exemplary anti-PD-1/CD137” for “Anti-CD40/CD137”, “PD-1” for “CD40”, “1000× g),” for “1000×g),”

T1 sequence (P25942 21-277): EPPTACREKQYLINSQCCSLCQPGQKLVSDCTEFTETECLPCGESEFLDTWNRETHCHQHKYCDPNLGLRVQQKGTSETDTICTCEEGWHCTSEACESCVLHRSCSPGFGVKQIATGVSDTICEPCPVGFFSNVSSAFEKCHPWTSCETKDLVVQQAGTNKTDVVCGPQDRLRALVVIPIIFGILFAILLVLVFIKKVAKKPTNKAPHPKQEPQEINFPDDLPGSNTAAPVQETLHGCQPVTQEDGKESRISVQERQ

B3: Ly515 (bispecific antibody, human IgG2, kappa)
heavy: QVQLVQSGAEVKKPGASVKVSCKASGYTFAGFEMHWVRQAPGQGLEWMGAIDPKTGGTDYNQKFKDRVTMTRDTSISTAYMELSRLRSDDTAVYYCARDLGYFDVWGQGTLVTVSSASTKGPSVFPLAPCSRSTSESTAALGCLVKDYFPEPVTVSWNSGALTSGVHTFPAVLQSSGLYSLSSVVTVPSSNFGTQTYTCNVDHKPSNTKVDKTVERKCCVECPPCPAPPVAPSVFLFPPKPKDTLMISRTPEVTCVVVDVSHEDPEVQFNWYVDGVEVHNAKTKPREEQFNSTFRVVSVLTVVHQDWLNGKEYKCKVSNKGLPAPIEKTISKTKGQPREPQVYTLPPSREEMTKNQVSLTCLVKGFYPSDIAVEWESNGQPENNYKTTPPMLDSDGSFFLYSKLTVDKSRWQQGNVFSCSVMHEALHNHYTQKSLSLSPGGGGGSGGGGSGGGGSGGGGSNIQMTQSPSSLSASVGDRVTITCKAGQNVNNYLAWYQQKPGKAPKVLIFNANSLQTGVPSRFSGSGSGTDFTLTISSLQPEDFATYYCQQYNSWPTFGGGTKVEIKRTVAAPSVFIFPPSDEQLKSGTASVVCLLNNFYPREAKVQWKVDNALQSGNSQESVTEQDSKDSTYSLSSTLTLSKADYEKHKVYACEVTHQGLSSPVTKSFNRGEC
light: DIQMTQSPSSLSASVGDRVTITCRASQDIRSNLNWYQQKPGGAVKLLIYYTSRLHSGVPSRFSGSGSGTDYTLTISSLQPEDFATYFCQQSEKLPRTFGGGTKVEIRRTVAAPSVFIFPPSDEQLKSGTASVVCLLNNFYPREAKVQWKVDNALQSGNSQESVTEQDSKDSTYSLSSTLTLSKADYEKHKVYACEVTHQGLSSPVTKSFNRGEC
chain: QVTLKESGPALVKPTQTLTLTCTFSGFSLSTSGTCVSWIRQPPGKALEWLATICWEDSKGYNPSLKSRLTISKDTSKNQAVLTMTNMDPVDTATYYCARREDSGYFWFPYWGQGTLVTVSSASTKGPSVFPLAPSSKSTSGGTAALGCLVKDYFPEPVTVSWNSGALTSGVHTFPAVLQSSGLYSLSSVVTVPSSSLGTQTYICNVNHKPSNTKVDKKVEPKSCDK
notes: Three-chain format: Ly1630 heavy chain fused to Ly516 light chain; Ly1630 light chain; Ly516 VH-CH1
EC50 (read off the curve) [2]: ~0.1 µg/mL

B4: Ly510 (bispecific antibody, human IgG2, kappa)
heavy: QVTLKESGPALVKPTQTLTLTCTFSGFSLSTSGTCVSWIRQPPGKALEWLATICWEDSKGYNPSLKSRLTISKDTSKNQAVLTMTNMDPVDTATYYCARREDSGYFWFPYWGQGTLVTVSSASTKGPSVFPLAPCSRSTSESTAALGCLVKDYFPEPVTVSWNSGALTSGVHTFPAVLQSSGLYSLSSVVTVPSSNFGTQTYTCNVDHKPSNTKVDKTVERKCCVECPPCPAPPVAPSVFLFPPKPKDTLMISRTPEVTCVVVDVSHEDPEVQFNWYVDGVEVHNAKTKPREEQFNSTFRVVSVLTVVHQDWLNGKEYKCKVSNKGLPAPIEKTISKTKGQPREPQVYTLPPSREEMTKNQVSLTCLVKGFYPSDIAVEWESNGQPENNYKTTPPMLDSDGSFFLYSKLTVDKSRWQQGNVFSCSVMHEALHNHYTQKSLSLSPGGGGGSGGGGSGGGGSGGGGSDIQMTQSPSSLSASVGDRVTITCRASQDIRSNLNWYQQKPGGAVKLLIYYTSRLHSGVPSRFSGSGSGTDYTLTISSLQPEDFATYFCQQSEKLPRTFGGGTKVEIRGGGGSGGGGSGGGGSGGGGSQVQLVQSGAEVKKPGASVKVSCKASGYTFAGFEMHWVRQAPGQGLEWMGAIDPKTGGTDYNQKFKDRVTMTRDTSISTAYMELSRLRSDDTAVYYCARDLGYFDVWGQGTLVTVSS
light: NIQMTQSPSSLSASVGDRVTITCKAGQNVNNYLAWYQQKPGKAPKVLIFNANSLQTGVPSRFSGSGSGTDFTLTISSLQPEDFATYYCQQYNSWPTFGGGTKVEIKRTVAAPSVFIFPPSDEQLKSGTASVVCLLNNFYPREAKVQWKVDNALQSGNSQESVTEQDSKDSTYSLSSTLTLSKADYEKHKVYACEVTHQGLSSPVTKSFNRGEC
notes: Anti-PD-1/CD137: Ly516 heavy chain (other constant region than Ly456) fused to Ly1630 scFv (VL-VH); Ly516 light chain
EC50 (read off the curve) [3]: ~0.02 µg/mL | EC50 (read off the curve) [4]: ~0.2 µg/mL

B5: Ly514 (bispecific antibody, human IgG2, kappa)
heavy: QVTLKESGPALVKPTQTLTLTCTFSGFSLSTSGTCVSWIRQPPGKALEWLATICWEDSKGYNPSLKSRLTISKDTSKNQAVLTMTNMDPVDTATYYCARREDSGYFWFPYWGQGTLVTVSSASTKGPSVFPLAPCSRSTSESTAALGCLVKDYFPEPVTVSWNSGALTSGVHTFPAVLQSSGLYSLSSVVTVPSSNFGTQTYTCNVDHKPSNTKVDKTVERKCCVECPPCPAPPVAPSVFLFPPKPKDTLMISRTPEVTCVVVDVSHEDPEVQFNWYVDGVEVHNAKTKPREEQFNSTFRVVSVLTVVHQDWLNGKEYKCKVSNKGLPAPIEKTISKTKGQPREPQVYTLPPSREEMTKNQVSLTCLVKGFYPSDIAVEWESNGQPENNYKTTPPMLDSDGSFFLYSKLTVDKSRWQQGNVFSCSVMHEALHNHYTQKSLSLSPGGGGGSGGGGSGGGGSGGGGSDIQMTQSPSSLSASVGDRVTITCRASQDIRSNLNWYQQKPGGAVKLLIYYTSRLHSGVPSRFSGSGSGTDYTLTISSLQPEDFATYFCQQSEKLPRTFGGGTKVEIRRTVAAPSVFIFPPSDEQLKSGTASVVCLLNNFYPREAKVQWKVDNALQSGNSQESVTEQDSKDSTYSLSSTLTLSKADYEKHKVYACEVTHQGLSSPVTKSFNRGEC
light: B4 light
chain: QVQLVQSGAEVKKPGASVKVSCKASGYTFAGFEMHWVRQAPGQGLEWMGAIDPKTGGTDYNQKFKDRVTMTRDTSISTAYMELSRLRSDDTAVYYCARDLGYFDVWGQGTLVTVSSASTKGPSVFPLAPSSKSTSGGTAALGCLVKDYFPEPVTVSWNSGALTSGVHTFPAVLQSSGLYSLSSVVTVPSSSLGTQTYICNVNHKPSNTKVDKKVEPKSCDK
notes: Three-chain format: Ly516 heavy chain fused to Ly1630 light chain; Ly516 light chain; Ly1630 VH-CH1
EC50 (read off the curve) [4]: ~0.2 µg/mL | EC50 (read off the curve) [2]: ~0.5 µg/mL

Other lines, results leading:

EC50 (read off the curve) [1]: ~0.09 µg/mL
B1: Ly253-G2 (antibody, human IgG2, kappa, V domains shown)
VH: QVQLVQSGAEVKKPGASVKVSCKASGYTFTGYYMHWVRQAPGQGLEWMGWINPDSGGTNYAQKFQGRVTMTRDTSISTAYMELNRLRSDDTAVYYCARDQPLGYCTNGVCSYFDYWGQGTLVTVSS
VL: DIQMTQSPSSVSASVGDRVTITCRASQGIYSWLAWYQQKPGKAPNLLIYTASTLQSGVPSRFSGSGSGTDFTLTISSLQPEDFATYYCQQANIFPLTFGGGTKVEIKR
notes: also called anti-CD40 antibody

EC50 (read off the curve) [2]: ~0.1 µg/mL
B2: Ly461 (bispecific antibody, human IgG1, kappa)
heavy: QVQLVQSGAEVKKPGASVKVSCKASGYTFAGFEMHWVRQAPGQGLEWMGAIDPKTGGTDYNQKFKDRVTMTRDTSISTAYMELSRLRSDDTAVYYCARDLGYFDVWGQGTLVTVSSASTKGPSVFPLAPSSKSTSGGTAALGCLVKDYFPEPVTVSWNSGALTSGVHTFPAVLQSSGLYSLSSVVTVPSSSLGTQTYICNVNHKPSNTKVDKKVEPKSCDKTHTCPPCPAPELLGPSVFLFPPKPKDTLMISRTPEVTCVVVDVSHEDPEVKFNWYVDGVEVHNAKTKPREEQYNSTYRVVSVLTVLHQDWLNGKEYKCKVSNKALPAPIEKTISKAKGQPREPQVYTLPPSREEMTKNQVSLTCLVKGFYPSDIAVEWESNGQPENNYKTTPPVLDSDGSFFLYSKLTVDKSRWQQGNVFSCSVMHEALHNHYTQKSLSLSPGGGGGSGGGGSGGGGSGGGGSNIQMTQSPSSLSASVGDRVTITCKAGQNVNNYLAWYQQKPGKAPKVLIFNANSLQTGVPSRFSGSGSGTDFTLTISSLQPEDFATYYCQQYNSWPTFGGGTKVEIKRTVAAPSVFIFPPSDEQLKSGTASVVCLLNNFYPREAKVQWKVDNALQSGNSQESVTEQDSKDSTYSLSSTLTLSKADYEKHKVYACEVTHQGLSSPVTKSFNRGEC
light: B3 light
chain: B3 chain
notes: as for B3
